Measurements: paper PMC9918544

Assays:
[1] = target: FSFG_(52×12) Mutant 1; test: partitioning into the condensed FG phase (confocal laser scanning microscopy); FG particles of unlabelled FG domain in assay buffer (50 mM Tris/HCl, 5 mM DTT, 150 mM NaCl) mixed with fluorescent probe: 6 μM mCherry, 3 μM EGFP, 1 μM NTR or 1.5 μM NTR pre-incubated with 1 μM cargo; partition coefficient = signal in the centre of the particle / buffer; 21 °C
[2] = target: FSFG_(52×12) Mutant 2; test: as above

NTF2 (Nuclear transport factor 2), coupled with Alexa488 (from UniProt P61970 1-127) (natural protein)
partition coefficient [1]: 2000 | partition coefficient [2]: 2000
